Test results reported in US20200040059A1.

Assays:
[1] = target: human PD-L1, full length, on transfected HEK293 cells (human) (UniProt Q9NZQ7); assay: flow cytometry, Fc fusion at 22.2 nM on HEK293 cells transfected with PD-L1
[2] = target: human CD28, full length, on transfected HEK293 cells (human) (UniProt P10747); assay: flow cytometry, Fc fusion at 66.6 nM on HEK293 cells transfected with CD28
[3] = target: human CTLA4, full length, on transfected HEK293 cells (human) (UniProt P16410); assay: flow cytometry, Fc fusion at 66.6 nM on HEK293 cells transfected with CTLA4
[4] = target: human PD-L1, full-length, expressed on transfected Expi293 cells (human) (UniProt Q9NZQ7); assay: flow cytometry on PD-L1-expressing Expi293 cells
[5] = target: human CD28, full-length, expressed on transfected Expi293 cells (human) (UniProt P10747); assay: flow cytometry on CD28-expressing Expi293 cells
[6] = target: human CTLA-4, full-length, expressed on transfected Expi293 cells (human) (UniProt P16410); assay: flow cytometry on CTLA-4-expressing Expi293 cells
CD96 = target: T1, CD96 (UniProt P40200); assay: flow cytometry, CD96-expressing cells
T1 sequence (looked up): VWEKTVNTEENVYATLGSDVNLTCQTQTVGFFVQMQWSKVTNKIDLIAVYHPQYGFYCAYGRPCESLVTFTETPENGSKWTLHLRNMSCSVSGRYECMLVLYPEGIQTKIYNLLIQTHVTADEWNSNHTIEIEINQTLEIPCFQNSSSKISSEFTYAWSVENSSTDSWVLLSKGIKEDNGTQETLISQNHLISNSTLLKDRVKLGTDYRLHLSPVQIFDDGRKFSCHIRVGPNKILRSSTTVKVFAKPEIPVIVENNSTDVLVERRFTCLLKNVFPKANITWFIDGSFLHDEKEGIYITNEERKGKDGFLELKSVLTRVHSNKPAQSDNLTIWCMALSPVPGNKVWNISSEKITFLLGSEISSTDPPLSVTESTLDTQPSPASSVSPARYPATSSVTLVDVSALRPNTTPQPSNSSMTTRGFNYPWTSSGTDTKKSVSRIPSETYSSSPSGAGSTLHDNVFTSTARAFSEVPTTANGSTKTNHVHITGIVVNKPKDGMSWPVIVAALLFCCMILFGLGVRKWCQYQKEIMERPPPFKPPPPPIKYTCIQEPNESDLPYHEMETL

[7] = target: CD80 (Homo sapiens (Human)) (UniProt P33681); assay: flow cytometry, cells expressing CD80
[8] = target: PD-1 (Homo sapiens (Human)) (UniProt Q15116); assay: flow cytometry, cells expressing PD-1
Chain of PD-1 (Homo sapiens (Human)) (Q15116 21-288 limits assumed): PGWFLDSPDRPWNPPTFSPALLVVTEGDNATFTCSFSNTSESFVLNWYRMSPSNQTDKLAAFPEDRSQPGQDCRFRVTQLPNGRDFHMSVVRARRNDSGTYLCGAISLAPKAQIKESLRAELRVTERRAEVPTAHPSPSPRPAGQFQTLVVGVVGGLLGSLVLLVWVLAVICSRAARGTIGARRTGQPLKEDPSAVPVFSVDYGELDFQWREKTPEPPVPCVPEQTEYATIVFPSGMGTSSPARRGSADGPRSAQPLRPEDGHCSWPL

Chain of human CTLA-4, full-length, expressed on transfected Expi293 cells (human) (P16410 36-223 limits assumed): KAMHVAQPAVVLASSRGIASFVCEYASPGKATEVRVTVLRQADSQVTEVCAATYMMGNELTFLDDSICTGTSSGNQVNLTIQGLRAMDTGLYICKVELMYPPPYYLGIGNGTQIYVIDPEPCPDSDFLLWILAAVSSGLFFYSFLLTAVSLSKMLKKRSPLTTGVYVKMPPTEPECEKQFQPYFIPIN
Chain of human CTLA4, full length, on transfected HEK293 cells (human) (P16410 36-223 limits assumed): as above
Chain of human PD-L1, full length, on transfected HEK293 cells (human) (Q9NZQ7 19-290 limits assumed): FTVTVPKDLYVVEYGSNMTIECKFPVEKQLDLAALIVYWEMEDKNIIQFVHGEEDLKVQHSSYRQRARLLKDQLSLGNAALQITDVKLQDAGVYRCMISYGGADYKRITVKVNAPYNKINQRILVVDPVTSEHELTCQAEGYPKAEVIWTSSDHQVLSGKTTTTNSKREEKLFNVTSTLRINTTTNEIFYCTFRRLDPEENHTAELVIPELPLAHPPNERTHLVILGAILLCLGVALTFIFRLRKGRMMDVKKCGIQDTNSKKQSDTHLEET
Chain of human PD-L1, full-length, expressed on transfected Expi293 cells (human) (Q9NZQ7 19-290 limits assumed): as above
Chain of CD80 (Homo sapiens (Human)) (P33681 35-288 limits assumed): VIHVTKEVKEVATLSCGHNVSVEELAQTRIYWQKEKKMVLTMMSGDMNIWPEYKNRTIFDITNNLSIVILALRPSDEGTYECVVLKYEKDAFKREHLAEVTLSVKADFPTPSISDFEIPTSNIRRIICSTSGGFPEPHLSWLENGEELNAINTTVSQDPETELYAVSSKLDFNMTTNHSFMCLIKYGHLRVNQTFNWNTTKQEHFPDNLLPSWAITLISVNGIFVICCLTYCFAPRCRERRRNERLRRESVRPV

CD80 variant IgV-Fc E35D/D46V/L85Q (from UniProt P33681 35-141) (Fc fusion)
MFI at 22.2 nM [1]: 38100 MFI
MFI at 66.6 nM [2]: 7510 MFI
MFI at 66.6 nM [3]: 86000 MFI

CD80 variant IgV-Fc E35D/M43L/L70M (from UniProt P33681 35-141) (Fc fusion)
MFI at 22.2 nM [1]: 40600 MFI
MFI at 66.6 nM [3]: 102000 MFI

CD80 variant IgV-Fc L70Q/A71D (from UniProt P33681 35-141) (Fc fusion)
MFI at 22.2 nM [1]: 1690 MFI
MFI at 66.6 nM [2]: 18600 MFI
MFI at 66.6 nM [3]: 45000 MFI

CD80 variant IgV-Fc M47V/I69F/A71D/V83I (from UniProt P33681 35-141) (Fc fusion)
MFI at 22.2 nM [1]: 3400 MFI
MFI at 66.6 nM [2]: 15900 MFI
MFI at 66.6 nM [3]: 76900 MFI

CD80 variant IgV-Fc Q27H/E35G/A71D/L72P/T79I (from UniProt P33681 35-141) (Fc fusion)
MFI at 22.2 nM [1]: 1450 MFI
MFI at 66.6 nM [3]: 85100 MFI

CD80 variant IgV-Fc Q27L/E35D/M47I/T57I/L70Q/E88D (from UniProt P33681 35-141) (Fc fusion)
MFI at 22.2 nM [1]: 1050 MFI
MFI at 66.6 nM [3]: 59800 MFI

CD80 variant IgV-Fc T41S/T57I/L70R (from UniProt P33681 35-141) (Fc fusion)
MFI at 22.2 nM [1]: 19500 MFI
MFI at 66.6 nM [2]: 4900 MFI
MFI at 66.6 nM [3]: 59800 MFI

CD80 variant IgV-Fc V20I/A71D (from UniProt P33681 35-141) (Fc fusion)
MFI at 22.2 nM [1]: 3550 MFI
MFI at 66.6 nM [3]: 60300 MFI

CD80 variant IgV-Fc V22L/E35D/M43L/A71G/D76H (from UniProt P33681 35-141) (Fc fusion)
MFI at 22.2 nM [1]: 1850 MFI
MFI at 66.6 nM [2]: 1500 MFI
MFI at 66.6 nM [3]: 2970 MFI

CD80 variant K36E/I67T/L70Q/A91G/T120S/T130A/N152T ECD-Fc fusion (from UniProt P33681 35-242)
MFI [4]: 5 MFI
MFI [5]: 8 MFI

CD80 variant K37E/F59S/L70Q/A91G/T120S/T130A ECD-Fc fusion (from UniProt P33681 35-242)
MFI [4]: 6 MFI
MFI [6]: 74 MFI
MFI [5]: 20 MFI

CD80 variant K89E/T130A ECD-Fc fusion (from UniProt P33681 35-242)
MFI [6]: 148 MFI

CD80 variant K89R/D90K/A91G/F92Y/K93R/N122S/N178S ECD-Fc fusion (from UniProt P33681 35-242)
MFI [6]: 49400 MFI
MFI [5]: 41700 MFI

CD80 variant L70Q/A91G/T110A/T120S/T130A ECD-Fc fusion (from UniProt P33681 35-242)
MFI [6]: 14 MFI

CD80 variant N63S/L70Q/A91G/T120S/T130A ECD-Fc fusion (from UniProt P33681 35-242)
MFI [4]: 6 MFI
MFI [6]: 165 MFI
MFI [5]: 124 MFI

CD80 variant T28S/L70Q/A91G/E95K/T120S/T130A ECD-Fc fusion (from UniProt P33681 35-242)
MFI [4]: 6 MFI
MFI [6]: 65 MFI
MFI [5]: 32 MFI

CD80 variant V4M/L70Q/A91G/T120S/T130A ECD-Fc fusion
MFI [4]: 6 MFI
MFI parental ratio (ratio to WT CD80 ECD-Fc) [4]: 0.09
MFI [6]: 263 MFI
MFI parental ratio (ratio to WT CD80 ECD-Fc) [6]: 1.26
MFI [5]: 89 MFI
MFI parental ratio (ratio to WT CD80 ECD-Fc) [5]: 0.94

CD155 variant IgV-Fc P18F, T26M, L44V, Q62K, L79P, F91S, L104M, G111D (from UniProt P15151 24-139) (Fc fusion)
MFI at 100 nM (CD96): 1630 MFI

CD155 variant IgV-Fc P18H, S42G, T45I, S52T, G53R, S54H, V57L, H59E, T61S, S65D, E68G, L104N (Fc fusion)
MFI at 100 nM (CD96): 3700 MFI

CD155 variant IgV-Fc P18S, S65W, S67A, M90V, V95A, L104Q, G111R (from UniProt P15151 24-139) (Fc fusion)
MFI at 100 nM (CD96): 2570 MFI

variant PD-L1 ECD-Fc M18I, I36T, E53G, M97L, K144E, E199G, V207A (from UniProt Q9NZQ7 19-238) (Fc fusion)
MFI at 20 nM [7]: 47400
MFI at 20 nM [8]: 104

variant PD-L1 ECD-Fc Y10F, M18V, S99G, Q138R, T203A (from UniProt Q9NZQ7 19-238) (Fc fusion)
MFI at 20 nM [7]: 412
MFI at 20 nM [8]: 70
